Assay results as given in patent publication US20140234872A1 (University of California, published 2014).

B1: endogenous Gαi3 of HEK cells (other, UniProt P08754 2-354, looked up)
chain: GCTLSAEDKAAVERSKMIDRNLREDGEKAAKEVKLLLLGAGESGKSTIVKQMKIIHEDGYSEDECKQYKVVVYSNTIQSIIAIIRAMGRLKIDFGEAARADDARQLFVLAGSAEEGVMTPELAGVIKRLWRDGGVQACFSRSREYQLNDSASYYLNDLDRISQSNYIPTQQDVLRTRVKTTGIVETHFTFKDLYFKMFDVGGQRSERKKWIHCFEGVTAIIFCVALSDYDLVLAEDEEMNRMHESMKLFDSICNNKWFTETSIILFLNKKDLFEEKIKRSPLTICYPEYTGSNTYEEAAAYIQCQFEDLNRRKDTKEIYTHFTCATDTKNVQFVFDAVTDVIIKNNLKECGLY
B2: His-GIV-CT (aa 1660-1870), wild-type, not phosphorylated (mock- or sham-treated) (other)
chain: SETLESRHHKIKTGSPGSEVVTLQQFLEESNKLTSVQIKSSSQENLLDEVMKSLSVSSDFLGKDKPVSCGLARSVSGKTPGDFYDRRTTKPEFLRPGPRKTEDTYFISSAGKPTPGTQGKIKLVKESSLSRQSKDSNPYATLPRASSVISTAEGTTRRTSIHDFLTKDSRLPISVDSPPAAADSNTTAASNVDKVQESRNSKSRSREQQSS
notes: Expressed in E. coli; also called mock-WT; mock-treated GIV-CT; not shown: hexahistidine (6xHis) tag of pET28b
B3: His-GIV-CT (aa 1660-1870), wild-type, phosphorylated in vitro by recombinant EGFR kinase (other)
chain: SETLESRHHKIKTGSPGSEVVTLQQFLEESNKLTSVQIKSSSQENLLDEVMKSLSVSSDFLGKDKPVSCGLARSVSGKTPGDFYDRRTTKPEFLRPGPRKTEDTYFISSAGKPTPGTQGKIKLVKESSLSRQSKDSNPYATLPRASSVISTAEGTTRRTSIHDFLTKDSRLPISVDSPPAAADSNTTAASNVDKVQESRNSKSRSREQQSS
modifications: phosphotyrosine at Y1764 and Y1798 (sites found by mass spectrometry after EGFR kinase; EGFR prefers Y1764)
notes: also called pY GIV-CT; pY GIV-CT (EGFR); not shown: hexahistidine (6xHis) tag of pET28b

Columns and labels:
[1] = target: endogenous SHP-1 of HEK cells (UniProt P29350 1-595); test: anti-SHP-1 co-immunoprecipitation from HEK lysates (FIG. 26)
Experimental: Equal aliquots of HEK lysates (bottom) were incubated with either rabbit preimmune (lane 1) or anti-SHP-1 (lane 2) IgGs, and protein A agarose beads. Lysates and immune complexes (top) were analyzed for GIV, SHP-1, and Gαi3 by immunoblotting (IB). SHP-1 was immunoprecipitated efficiently and specifically by anti-SHP-1 (lane 2), but not control (lane 1) IgG. GIV, but not Gαi3 was detected in SHP-1-bound protein complexes (lane 2).

[2] = target: His-Gαi3; test: cell-based or functional assay
[3] = target: T1, GST (alone) (UniProt P08515 1-218 = GST); test: GST pulldown, GIV-CT pAb blot (FIG. 20B)
T1 construct: Negative control on glutathione beads
Experimental: Equal aliquots (˜3 μg) of His-GIV-CT were incubated with ˜30 ug of GST and ˜25 μg GST-SHP-1 immobilized on glutathione beads. Bound His-GIV-CT was analyzed by immunoblotting (IB) with GIV-CT pAb. Relative amounts of bead-bound GST and GST-SHP-1 were confirmed by ponceau S staining. (B) His-GIV-CT preferentially binds the C-terminal SH2 domain of SHP-1. Equal aliquots (˜3 μg) of His-GIV-CT were incubated with ˜30 μg GST, wild-type GST-SHP-1, GST-SHP-1 lacking both SH2 domains (ΔN+CSH2), and GST-SHP-1 lacking only the N-terminal SH2 domain (ΔNSH2). Bound His-GIV-CT was analyzed by immunoblotting (IB) with GIV-CT pAb. His-GIV-CT specifically bound wild-type GST-SHP-1, but not GST alone (lanes 3, 4); binding was reduced in the absence of both SH2 domains (lane 5), but restored when the C-terminal SH2 domain was present (lane 6).
To determine if the GIV-SHP-1 interaction observed in vivo is direct, in vitro binding assays were carried out using recombinant His-GIV-CT and GST or GST-SHP-1 immobilized on glutathione beads. […] Because SHP-1 is recruited to its substrates by one or both of its in-tandem SH2 domains (30), whether the SH2 domains, and if so, which one (NSH2 or CSH2) is responsible for mediating the direct interaction of SHP-1 with GIV's C-terminus was assessed. […]

[4] = target: T1, GST (alone); test: GST pulldown with a panel of GST-tagged SH2 adaptors (FIG. 4A)
Experimental: FIG. 4 illustrates that GIV interacts with p85α via its phosphorylated C-terminus. […] Mock-treated GIV-CT and in vitro EGFR-phosphorylated pY GIV-CT were incubated with ˜35 μg of the indicated GST-SH2 adaptors or GST immobilized on glutathione beads. Bound His-GIV-CT was analyzed by immunoblotting (IB) with anti-His mAb. pY GIV-CT, but not GIV-CT specifically bound the C-terminal SH2 domain of p85α (lane 3), and weakly to the N-terminal SH2 domain of p85α (lane 2). […] Mock-treated GIV-CT and in vitro EGFR or Src-phosphorylated (pY GIV-CT) His-GIV-CT were incubated with ˜35 μg of GST-p85α-CSH2 adaptor or GST immobilized on glutathione beads. Bound His-GIV CT was analyzed by immunoblotting (IB) with anti-His mAb. GIV CT bound p85α-CSH2 exclusively after phosphorylation by EGFR and Src-kinases (lanes 3, 4), but not when sham-treated (lane 2). […] HeLa cells were starved (0 min), and subsequently stimulated with EGF for indicated time periods prior to lysis. Equal aliquots of lysates (bottom) were incubated with anti-GIV (CT Ab; lanes 1-3) or a mix (M) of them was incubated with pre-immune IgG Immune complexes (top) were analyzed for the presence of endogenous GIV, phosphotyrosine (pTyr) and p85α by immunoblotting (IB). […] Equal aliquots of lysates (bottom) were treated with anti-GIVCT Ab or preimmune IgG Immunoprecipitated complexes (top) were analyzed for GIV and p85α by immunoblotting (IB). […]

T1 sequence (P08515 whole entry): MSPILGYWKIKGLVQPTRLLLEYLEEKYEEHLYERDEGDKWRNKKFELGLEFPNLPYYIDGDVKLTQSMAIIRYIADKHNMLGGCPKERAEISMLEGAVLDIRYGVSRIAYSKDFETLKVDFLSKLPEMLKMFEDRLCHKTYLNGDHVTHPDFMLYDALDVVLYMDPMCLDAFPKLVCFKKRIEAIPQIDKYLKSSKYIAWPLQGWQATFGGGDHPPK
Chain of endogenous SHP-1 of HEK cells (P29350 whole entry): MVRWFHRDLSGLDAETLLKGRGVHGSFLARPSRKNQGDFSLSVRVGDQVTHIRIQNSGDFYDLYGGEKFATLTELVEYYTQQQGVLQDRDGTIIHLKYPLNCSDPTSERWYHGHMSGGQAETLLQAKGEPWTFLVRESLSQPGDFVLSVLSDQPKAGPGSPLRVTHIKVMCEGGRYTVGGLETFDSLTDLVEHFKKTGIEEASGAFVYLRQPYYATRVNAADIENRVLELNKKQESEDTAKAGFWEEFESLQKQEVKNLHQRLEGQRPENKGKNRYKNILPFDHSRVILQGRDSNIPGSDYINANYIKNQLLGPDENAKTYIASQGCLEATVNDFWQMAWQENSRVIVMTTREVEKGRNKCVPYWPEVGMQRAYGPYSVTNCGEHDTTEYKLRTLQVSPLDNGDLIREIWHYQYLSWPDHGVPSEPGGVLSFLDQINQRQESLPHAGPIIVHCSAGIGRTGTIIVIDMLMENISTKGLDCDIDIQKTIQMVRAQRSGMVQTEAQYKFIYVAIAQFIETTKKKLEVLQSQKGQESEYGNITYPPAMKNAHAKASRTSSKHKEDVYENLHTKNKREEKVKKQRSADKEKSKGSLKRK

Binder | binding result [1] | steady-state GTPase activity of His-Gαi3 [2] | binding result [3] | binding result [4]
B1 | no binding | – | – | –
B2 | – | ~1.7 fold over the basal activity | no binding (tested: ˜3 µg His-GIV-CT, ˜30 µg GST) | –
B3 | – | ~1.7 fold over the basal activity | – | no binding
